Common to all, as to experiment: non-reducing gel electrophoresis with western blot (trimerization assay); BmN cells expressing GP64 or CARC mutants harvested, lysed in PBS (pH 7.4), separated on 10% nonreducing polyacrylamide gel, blotted with anti-GP64 (AcV5)
For assay [1], the target named is BmNPV GP64 (wild type, signal peptide retained) (Bombyx mori nucleopolyhedrovirus (BmNPV)) (UniProt P41722).
Assay [2] deals with BmNPV GP64 W154A (CARC2 mutant) (Bombyx mori nucleopolyhedrovirus (BmNPV)) (UniProt P41722).
Assay [3] has as its target BmNPV GP64 Y49A (CARC1 mutant) (Bombyx mori nucleopolyhedrovirus (BmNPV)) (UniProt P41722).
In assay [4] the target is BmNPV GP64 F235A (CARC5 mutant) (Bombyx mori nucleopolyhedrovirus (BmNPV)) (UniProt P41722).
The target in assay [5] is BmNPV GP64 W178A (CARC3 mutant) (Bombyx mori nucleopolyhedrovirus (BmNPV)) (UniProt P41722).
Assay [6] addresses BmNPV GP64 Y188A (CARC4 mutant) (Bombyx mori nucleopolyhedrovirus (BmNPV)) (UniProt P41722).
Assay [7] addresses BmNPV GP64 W299A (CARC6 mutant) (Bombyx mori nucleopolyhedrovirus (BmNPV)) (UniProt P41722).

As to “BmNPV GP64 (wild type, signal peptide retained) (from UniProt P41722 1-37) (natural protein)”, in assay [1], the stoichiometry N came to 3.
Consider “BmNPV GP64 W154A (CARC2 mutant) (from UniProt P41722 1-37) (natural protein)”, for which the stoichiometry N in assay [2] turned out to be 3.
In assay [3], “BmNPV GP64 Y49A (CARC1 mutant) (from UniProt P41722 1-37) (natural protein)” gave a stoichiometry N of 3.
On to “BmNPV GP64 F235A (CARC5 mutant) (from UniProt P41722 1-37) (natural protein)”, for which the stoichiometry N in assay [4] came out at 3.
Substance “BmNPV GP64 W178A (CARC3 mutant) (from UniProt P41722 1-37) (natural protein)” showed a stoichiometry N in assay [5] of 3.
Turning to “BmNPV GP64 Y188A (CARC4 mutant) (from UniProt P41722 1-37) (natural protein)”, in assay [6], the stoichiometry N was 3.
Substance “BmNPV GP64 W299A (CARC6 mutant) (from UniProt P41722 1-37) (natural protein)” came in with a stoichiometry N in assay [7] of 3.

For the origin of these results see article PMC11784077.
